According to the supplement of paper PMC9170038:

These sequences were tested on K4 kissing-loop RNA reporter (assay: apparent KD of K4 kissing-loop reporter; higher = weaker reporter binding). Details: Eterna round: R107; input ligand: theophylline 20 uM.
Method: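 RNA-MaP round R107: designed RNA switches with theophylline, tryptophan, arginine or FMN aptamers are transcribed on-chip within common flanks. They are titrated with a labelled K4 kissing-loop RNA reporter in RNA-MaP buffer (100 mM Tris pH 7.5, 80 mM KCl, 4 mM MgCl2), without ligand or with the indicated ligand. Median apparent KD per design.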
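Further: bound reporter read as fluorescence of individual clusters on recovered sequencing chips by microscopy, with normalized cluster intensities fitted with a binding model.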

Row | Sequence | apparent KD of K4 kissing-loop reporter
1 | AGAUAGGGCUGAAGGAGCGUCGGAGAAGAGAAGAAGAAAUCCAGUGAUGUUGGAUAAAUCCGACAGGUAGGUCGCAGUUUUAUGA [hbob_SS_Arginine_B_2t137] | 0.179 µM
2 | AGUGAUGUGGGAAGGAGCGGUAUAUGAGUUCAGUGAUGUUGAAGUGAUGCUGUAGUGUUGUGCCAGGUAGGUCGCCUAGAUGUUA [KL-XARG B25] | 0.226 µM
3 | UAAGAUUCUGUCUCAUUGAGACAGAAUCAACGAGGACCGGUACGGCCGCCACUCGGGUCCUAGAGUGAUGUUCUAAUAAUAUAAU [AK1 SS Tryptophan A] | 0.369 µM
4 | ACGACUGGAUGAAUAACAUCUAGUCGAGAUCGAGGACCGGUACGGCCGCCACUCGAGCUAACUGCGAGUGAUGUUCGAUAAUAAA [#OpenEnded 2] | 0.2 µM
5 | AGGAGCGUGGGAUGUAAAUCGCACGCUCCUCGAGGACCGGUACGGCCGCCACUCGCUCGCGCCGAGUGAUGUUCGGCCGGCGAAC [#2 Same State - Tryptophan A Attempt #13 (HarryS)] | 0.209 µM
6 | UGACUGGACUGAAGGAGCGUGGAAGGAGCGUAAGUAGUGAUGUUGCUUACAGGUAGGUCGCCGCAGGUAGGUCGCAGUCUAGUCU | 0.0536 µM
7 | AGUGAUGUUGAGUUAUGUUAGUGAAGUGAUCGAGGACCGGUACGGCCGCCACUCGAGUGAUGAGUGAGUGAUGUUUGUUUAGUGA [bvbmullin] | 0.692 µM
8 | UGACUGGAUGGAAGGAGCGCUAAACUCCUAGUGAUGUUAGGGACACGAGACAAAGUCUUGAAGCAGGUAGGUCGCCAUCUAGUCU [FiskerMod 9 - Jieux - Same State - Arginine B] | 0.228 µM
9 | UCCUAGGCUCGAAAGAGCCUAGGAUUUACUCAGGAUAUCCGGAAACGGAGAAGGGAGUGACUAGUGAUGUUAGGGACUCCCUAUU | 0.0852 µM
10 | UAAUAAUAAUGAUAAUAAUCAAGUGGUGGACGAGGACCGGUACGGCCGCCACUCGAAAAUGCAGUGAUGUUGUAAUACGGAUAAU [Exclusion - Tryptophan A (Freestyle 2)] | 0.203 µM
11 | AGCGACUCGAAAGGGUCGCGGCUAAGGGAUACCAGUGAUGUUGGUCACCCUUGGCAGCCCAGAAGCCAAGCCACCAAAGGUGGCA [Omei KL Theo A Exc A v10] | 0.114 µM
12 | AGGUGAGAGUGAAGGAGCGAUCGCGCCAGUGAUGUUGGUGAGCAUGACGAAAGUCAUGCCGAUCAGGUAGGUCGCACUCUUACUC [Omei KL Arginine B SS B v3] | 0.547 µM
13 | ACGAAAUGCGACUCCUAGUUACACCGGGAAGGAGCGCGGAUAACCGCAGGUAGGUCGCCCGGAAGCCGGACCAGUGAUGUUGGUC [Exclusion Arginine A Gf 27] | 0.165 µM
14 | UGUAUGGACUGAAGGAGCGCUAGGAGUGUGAGUGAUGUUCAUACAAAUGUAUAGAUGGUCUGGCAGGUAGGUCGCAGUCCAUACU [KL-SSArg B4] | 0.156 µM
15 | CCCAAGGGCCUACCGGUAUGAUGGACGGAUACCAGAGGCGAAAGCCUCCCUUGGCAGCCGGGUGUAGUGAUGUUACUCCGGUAGU | 0.0789 µM
16 | GCGGGCCAGACGGCCGCCACUCCGGGCAGUGAUGUUGCGAAACUUCUACUAGAGUGAUGUUCUACGAGGACCGGGUCGGAACGCG [Exclusion Tryptophan B Gf 13] | 1 µM
17 | UCGAUGGCCAGCGAUACCAGCCCAGUGAUGUUGGGCACAUGGUUGCGGGAAAUCCCAUUGGGCCCUUGGCAGCGCUUGCAUAGGU [Cezaat] | 0.219 µM
18 | CAAAUGUUGUCAGGAUAUGAGCGCAGUGAUGUUGCGGUUGUAUUUAUGACUGGAGCAGCGUAAGCCUCAGAAGGGACAAGUUGCC [Qubioran] | 0.0849 µM
19 | AGCUGUAGCAGAAGGAGCGACAGUUAUUCUGAUAGUACUCUGAGUGAUGUUCAGAACGACUGUCAGGUAGGUCGCUGUUACAGCU [Arg B Ex t8b] | 0.143 µM
20 | UACUAUAUUCUGUCGUUUAUAUUAUUUUGUCAGGAUAUCGUUUAUUCGAGAAGGGACACUAUCUAGUGAUGUUAGAUUUUUCUUU [JR_Nu_ExcFMNA_Sub029] | 0.108 µM
21 | AGGAUGUAGUGAUGUUAUAUAAGAAGUAAACGAGGACCGGUACGGCCGCCACUCGAAGCGGCUACUAGCGCGCGCGCGCGCGCGC [ExTryptoA.Ca] | 0.336 µM
22 | GGUGUUGUUUGUGCCGCCUUCCUCGUUCCUCGAGGACCGGUACGGCCGCCACUCGAGUGAUGUUUGGGUAGCGAUCCCUGCUAGU [Bdazzled - #12 Exc. Tryptophan A] | 0.822 µM
23 | AUCGUUGUCUGAGGAUAUCGGUUAUCUGUAGUGAUGUUACAGUAUAUUGAUAUUAAAGAUUCUAUUCGAGAAGGCAGACAACGUA [JR_Nu3_ExcFMNB_Sub023] | 0.0579 µM
24 | UCGGGCGGCUGAAGGAGCGGGCGGGCCCGAGUGAUGUUCGGGUGGGCUGUGAGGCCCGGAGCCCAGGUAGGUCGCGGUUCCGCCC [#2 Same State - Arginine B Attempt #28 (HarryS)] | 0.168 µM
25 | GGUUCCUCAGUGAUGUUGAGGUGACCUCGGCAGGAUAUAGGCAUUACUAGAAGGGCCAAAAGAACCCUGUGUAGCGACACAGGGA [Beerma] | 0.279 µM
26 | AAGGUAUCACCAACUUGUAACAUAGGUGAUACCAGCAUCGAAAGAUGCCCUUGGCAGCACCAACUUGCAGUGAUGUUGCAAGUAA [(T)'-(H)'-(T1)-(T2)-(H1)-(H2)_Design11] | 0.152 µM
27 | UGGAUAUCGUUUAGUCUGGUGAGCUCAGAUACCAGACUAGCGAUAGUCCCUUGGCAGCUGAUUAUGAUUGAGUGAUGUUCAAUCG [Theo A Ex t9b] | 0.151 µM
